Data published in patent publication US20220040297A1 (Chugai, published 2022).
Positions count from the first letter of the chain named.

B1: GLS3000 R54S (antibody, name in Kabat numbering, V domains shown)
VH: QVQLVESGGGVVQPGRSLRLSCAASGFTFSNAWMHWVRQAPGKGLEWVAQIKAKSNNYATYYAESVKGRFTISRDDSKNSLYLQMNSLKTEDTAVYYCRYVHYGAYYGVDAWGQGTTVTVSS
VL: DIVMTQSPLSLPVTPGEPASISCRSSQSLVHSNRNTYLHWYQQKPGQAPRLLIYKVSNSFSGVPDRFSGSGSGTDFTLKISRVEAEDVGVYYCGQGTQVPYTFGQGTKLEIK
notes: one-arm format as m2
B2: GLS3000 S27eH (antibody, name in Kabat numbering, V domains shown)
VH: B1 VH
VL: B1 VL with S32H, S59R
notes: one-arm format as m2
B3: GLS3000 S25V (antibody, name in Kabat numbering, V domains shown)
VH: B1 VH
VL: B1 VL with S25V, S59R
notes: one-arm format as m2
B4: GLS3000 S27aY (antibody, name in Kabat numbering, V domains shown)
VH: B1 VH
VL: B1 VL with S28Y, S59R
notes: one-arm format as m2
B5: GLS3000 S27eT (antibody, name in Kabat numbering, V domains shown)
VH: B1 VH
VL: B1 VL with S32T, S59R
notes: one-arm format as m2
B6: GLS3000 S27eL (antibody, name in Kabat numbering, V domains shown)
VH: B1 VH
VL: B1 VL with S32L, S59R
notes: one-arm format as m2
B7: GLS3000 S27eE (antibody, name in Kabat numbering, V domains shown)
VH: B1 VH
VL: B1 VL with S32E, S59R
notes: one-arm format as m2
B8: GLS3000 S27aP (antibody, name in Kabat numbering, V domains shown)
VH: B1 VH
VL: B1 VL with S28P, S59R
notes: one-arm format as m2
B9: GLS3000 S27eY (antibody, name in Kabat numbering, V domains shown)
VH: B1 VH
VL: B1 VL with S32Y, S59R
notes: one-arm format as m2
B10: GLS3000 S27eI (antibody, name in Kabat numbering, V domains shown)
VH: B1 VH
VL: B1 VL with S32I, S59R
notes: one-arm format as m2
B11: GLS3000 S25P (antibody, name in Kabat numbering, V domains shown)
VH: B1 VH
VL: B1 VL with S25P, S59R
notes: one-arm format as m2
B12: GLS3000 S27eQ (antibody, name in Kabat numbering, V domains shown)
VH: B1 VH
VL: B1 VL with S32Q, S59R
notes: one-arm format as m2
B13: GLS3000 S26P (antibody, name in Kabat numbering, V domains shown)
VH: B1 VH
VL: B1 VL with S26P, S59R
notes: one-arm format as m2
B14: GLS3000 S26E (antibody, name in Kabat numbering, V domains shown)
VH: B1 VH
VL: B1 VL with S26E, S59R
notes: one-arm format as m2
B15: GLS3000 S27eG (antibody, name in Kabat numbering, V domains shown)
VH: B1 VH
VL: B1 VL with S32G, S59R
notes: one-arm format as m2
B16: GLS3000 S52D (antibody, name in Kabat numbering, V domains shown)
VH: B1 VH
VL: B1 VL with S57D, S59R
notes: one-arm format as m2
B17: GLS3000 R77S (antibody, name in Kabat numbering, V domains shown)
VH: B1 VH
VL: B1 VL with S59R, R82S
notes: one-arm format as m2
B18: GLS3000 S52A (antibody, name in Kabat numbering, V domains shown)
VH: B1 VH
VL: B1 VL with S57A, S59R
notes: one-arm format as m2
B19: GLS3000 S27eR (antibody, name in Kabat numbering, V domains shown)
VH: B1 VH
VL: B1 VL with S32R, S59R
notes: one-arm format as m2
B20: GLS3000 R54T (antibody, name in Kabat numbering, V domains shown)
VH: B1 VH
VL: B1 VL with S59T
notes: one-arm format as m2
B21: GLS3000 S27eN (antibody, name in Kabat numbering, V domains shown)
VH: B1 VH
VL: B1 VL with S32N, S59R
notes: one-arm format as m2
B22: GLS3000 S26D (antibody, name in Kabat numbering, V domains shown)
VH: B1 VH
VL: B1 VL with S26D, S59R
notes: one-arm format as m2
B23: GLS3000 S25T (antibody, name in Kabat numbering, V domains shown)
VH: B1 VH
VL: B1 VL with S25T, S59R
notes: one-arm format as m2
B24: GLS3000 S25E (antibody, name in Kabat numbering, V domains shown)
VH: B1 VH
VL: B1 VL with S25E, S59R
notes: one-arm format as m2
B25: GLS3000 S25L (antibody, name in Kabat numbering, V domains shown)
VH: B1 VH
VL: B1 VL with S25L, S59R
notes: one-arm format as m2
B26: GLS3000 S27aG (antibody, name in Kabat numbering, V domains shown)
VH: B1 VH
VL: B1 VL with S28G, S59R
notes: one-arm format as m2
B27: GLS3000 S27eW (antibody, name in Kabat numbering, V domains shown)
VH: B1 VH
VL: B1 VL with S32W, S59R
notes: one-arm format as m2
B28: GLS3000 S27aD (antibody, name in Kabat numbering, V domains shown)
VH: B1 VH
VL: B1 VL with S28D, S59R
notes: one-arm format as m2
B29: GLS3000 S27eD (antibody, name in Kabat numbering, V domains shown)
VH: B1 VH
VL: B1 VL with S32D, S59R
notes: one-arm format as m2
B30: GLS3000 S27aI (antibody, name in Kabat numbering, V domains shown)
VH: B1 VH
VL: B1 VL with S28I, S59R
notes: one-arm format as m2
B31: GLS3000 S56A (antibody, name in Kabat numbering, V domains shown)
VH: B1 VH
VL: B1 VL with S59R, S61A
notes: one-arm format as m2
B32: GLS3000 S27eM (antibody, name in Kabat numbering, V domains shown)
VH: B1 VH
VL: B1 VL with S32M, S59R
notes: one-arm format as m2
B33: GLS3000 S52P (antibody, name in Kabat numbering, V domains shown)
VH: B1 VH
VL: B1 VL with S57P, S59R
notes: one-arm format as m2
B34: GLS3000 S52Q (antibody, name in Kabat numbering, V domains shown)
VH: B1 VH
VL: B1 VL with S57Q, S59R
notes: one-arm format as m2
B35: GLS3000 S27eV (antibody, name in Kabat numbering, V domains shown)
VH: B1 VH
VL: B1 VL with S32V, S59R
notes: one-arm format as m2
B36: GLS3000 S27eP (antibody, name in Kabat numbering, V domains shown)
VH: B1 VH
VL: B1 VL with S32P, S59R
notes: one-arm format as m2
B37: GLS3000 S25D (antibody, name in Kabat numbering, V domains shown)
VH: B1 VH
VL: B1 VL with S25D, S59R
notes: one-arm format as m2
B38: GLS3000 S25I (antibody, name in Kabat numbering, V domains shown)
VH: B1 VH
VL: B1 VL with S25I, S59R
notes: one-arm format as m2
B39: GLS3000 S27aN (antibody, name in Kabat numbering, V domains shown)
VH: B1 VH
VL: B1 VL with S28N, S59R
notes: one-arm format as m2
B40: GLS3000 S27aE (antibody, name in Kabat numbering, V domains shown)
VH: B1 VH
VL: B1 VL with S28E, S59R
notes: one-arm format as m2
B41: GLS3000 S27eF (antibody, name in Kabat numbering, V domains shown)
VH: B1 VH
VL: B1 VL with S32F, S59R
notes: one-arm format as m2
B42: GLS3000 S25A (antibody, name in Kabat numbering, V domains shown)
VH: B1 VH
VL: B1 VL with S25A, S59R
notes: one-arm format as m2
B43: GLS3000 S27eK (antibody, name in Kabat numbering, V domains shown)
VH: B1 VH
VL: B1 VL with S32K, S59R
notes: one-arm format as m2
B44: GLS3000 S25M (antibody, name in Kabat numbering, V domains shown)
VH: B1 VH
VL: B1 VL with S25M, S59R
notes: one-arm format as m2
B45: GLS3000 S52Y (antibody, name in Kabat numbering, V domains shown)
VH: B1 VH
VL: B1 VL with S57Y, S59R
notes: one-arm format as m2
B46: GLS3000 R54W (antibody, name in Kabat numbering, V domains shown)
VH: B1 VH
VL: B1 VL with S59W
notes: one-arm format as m2

molecular target: CD3ε homodimer protein (human, UniProt P07766 23-126, limits assumed); assay: SPR, immobilized CD3ε homodimer;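 further: biacore T200 surface plasmon resonance at 25 °C, antibody variants flowed as analytes over amine-coupled CD3ε homodimer on a CM4 chip, variant binding amount divided by that of GLS3000 antibody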
Sequence (P07766 23-126 limits assumed): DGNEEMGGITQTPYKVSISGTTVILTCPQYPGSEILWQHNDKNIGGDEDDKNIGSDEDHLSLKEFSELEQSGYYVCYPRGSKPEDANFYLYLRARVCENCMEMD
Procedure: Each one-amino acid altered form constructed, expressed, and purified in the paragraph (6-2) was evaluated using Biacore T200 (GE Healthcare Japan Corp.). An appropriate amount of CD3ε homodimer protein was immobilized onto Sensor chip CM4 (GE Healthcare Japan Corp.) by the amine coupling method. Then, the antibody having an appropriate concentration was injected thereto as an analyte and allowed to interact with the CD3ε homodimer protein on the sensor chip. Then, the sensor chip was regenerated by the injection of 10 mmol/L glycine-HCl (pH 1.5). The assay was conducted at 25° C., and HBS-EP+ (GE Healthcare Japan Corp.) was used as a running buffer. […] Each parameter was calculated using Biacore T200 Evaluation Software (GE Healthcare Japan Corp.).
Specifically, when the amount of the GLS3000-containing antibody bound was defined as X and the amount of the L chain one-amino acid altered form bound was defined as Y, a value of Z (ratio of amounts bound)=Y/X was used.

ratio of amounts bound (vs GLS3000) | Binder
0.79 | B1
1.23 | B2
0.73 | B3
1.1 | B4
0.97 | B5
1.17 | B6
0.76 | B7
0.99 | B8
1.2 | B9
1.07 | B10
1.01 | B11
1.1 | B12
0.78 | B13
0.74 | B14
1.04 | B15
0.63 | B16
0.92 | B17
0.93 | B18
1.58 | B19
0.65 | B20
1.16 | B21
0.86 | B22
0.83 | B23

ratio of amounts bound (vs GLS3000) | Binder
0.21 | B24
0.24 | B25
1.03 | B26
1.55 | B27
0.79 | B28
0.69 | B29
1 | B30
1.16 | B31
1.23 | B32
0.33 | B33
1.05 | B34
1.08 | B35
1.26 | B36
0.48 | B37
0.53 | B38
1.1 | B39
0.81 | B40
1.32 | B41
0.92 | B42
1.59 | B43
0.31 | B44
1.12 | B45
0.78 | B46
